Measured values taken from US20140163217A1, “PROCESS FOR THE ESTERIFICATION OF HYALURONIC ACID WITH HYDROPHOBIC ORGANIC COMPOUNDS” (UNIVERSITE DE GENEVE, priority 2010, published 2014).

What was measured:
Format in all cases: physicochemical
[1] = Solution appearance of a 1% (weight/weight) solution in MilliQ water; settings: approx. 10 mg freeze-dried compound in 1 ml MilliQ water, after storage or centrifugation at 14'000 rpm for 10 min
Description: A 1% (weight/weight) solution was obtained by dissolving approximately 10 mg of freeze-dried compound into 1 ml of pure MilliQ water.

[2] = pH determination of the 1% solution; settings: 1% (weight/weight) solution in MilliQ water; Metrohm 691 pH-Meter, Biotrode glass electrode
Description: pH of the above described 1% solution was determined to be 5.5 (Metrohm 691 ph-Meter operated with a Biotrode glass electrode; according to specifications received for the initial hyaluronic acid provided by TRB, pH of a 0.5% solution should be between 5.0 and 8.5).

[3] = Solubility of the product in water; settings: product of small scale reaction (0.5 g), 2% diacerhein functionalization
Description: 0.044 g Diacerhein were suspended into 20 mL dry THF, followed by addition of 0.022 g CDI dissolved in 2 mL THF. The reaction mixture was stirred for 1 hour at room temperature until a clear solution was obtained. 0.5 g cryo-micronized HA powder were added and the suspension stirred at 70° C. for 24 hours. The reaction mixture was then filtered through a G4-fritte and washed with 150 mL dry THF. The non-soluble remaining HA product was slightly yellowish. By redissolving the product in water small amounts of remaining dispersed diacerhein could be removed by centrifugation to yield a visually clear and transparent aqueous solution.
The obtained product was analyzed by H^1-NMR-, HPLC-, UV- and LC-MS/MS-analyses, and the following results were obtained. The reaction resulted a 100% yield of HA-polymer, close to its original molecular weight with a 2% diacerhein-fimctionalization. No significant degradation of HA in the final product could be observed. […] For further qualitative characterization the HA-diacerhein product was enzymatically hydrolysed, which lead to HA-fragments (oligomers) with and without diacerhein, which could be analysed by HPLC analysis. Furthermore HA-fragments with and without diacerhein attached were identified by LC-MS/MS.

Substance: HA-Diacerhein [Example 2]
- solution appearance / precipitation [1]: no precipitation occurred
- pH of 1% solution [2]: 5.5

Substance: HA-Diacerhein [Example 1]
- solubility in water [3]: soluble in water
